This assay has as its target T1, GST-LjBAK1cyt (Lotus japonicus, UniProt A0A2H4NR37).
T1 chain: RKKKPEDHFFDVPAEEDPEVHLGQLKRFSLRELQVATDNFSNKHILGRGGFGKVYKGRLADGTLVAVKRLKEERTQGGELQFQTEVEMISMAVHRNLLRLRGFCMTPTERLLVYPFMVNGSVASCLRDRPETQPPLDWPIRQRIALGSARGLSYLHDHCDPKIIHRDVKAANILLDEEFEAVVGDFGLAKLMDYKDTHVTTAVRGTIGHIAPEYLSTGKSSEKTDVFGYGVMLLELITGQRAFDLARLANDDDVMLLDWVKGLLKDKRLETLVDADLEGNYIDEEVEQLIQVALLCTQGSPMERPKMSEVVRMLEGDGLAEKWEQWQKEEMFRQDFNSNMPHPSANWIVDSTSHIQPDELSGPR
The assay is described as follows: GST pull-down.

B1: HIS-NFR5cyt (protein)
chain: RRKKALNRTASSAETADKLLSGVSGYVSKPNVYEIDEIMEATKDFSDECKVGESVYKANIEGRVVAVKKIKEGGANEELKILQKVNHGNLVKLMGVSSGYDGNCFLVYEYAENGSLAEWLFSKSSGTPNSLTWSQRISIAVDVAVGLQYMHEHTYPRIIHRDITTSNILLDSNFKAKIANFAMARTSTNPMMPKIDVFAFGVLLIELLTGRKAMTTKENGEVVMLWKDMWEIFDIEENREERIRKWMDPNLESFYHIDNALSLASLAVNCTADKSLSRPSMAEIVLSLSFLTQQSSNPTLERSLTSSGLDVEDDAHIVTSITAR
Consider B1, for which the binding result is “binds”.

The record behind these values is PMC6171183 (2018).
